According to PMC11393077:

Biological target: CTD peptide containing two heptad repeats with one Ser5 phosphorylation site
Experiment: fluorescence polarisation

Human prolyl isomerase 1 (PIN1) (from UniProt Q13526 1-163) (enzyme)
Kd: 21 µM
